{"source": "patent US20210101945A1", "about": "(University of Washington, published 2021)", "key": {"[1]": {"target": "the molecule itself", "assay": "X-ray crystal structure superimposed on the design model; homodimer", "description": "(§1) The optimum conditions for crystallization of the different designs were found as follows: 2L6HC3_6, 0.2 M Sodium Fluoride, 0.1 M MES pH 5.5 and 20% PEG 400; 2L6HC3_12, 2.2 M Sodium Malonate pH 5.0; 2L6HC3_13, 0.06 M Citric acid, 0.04 M BIS-TRIS propane pH 4.1 and 16% PEG 3,350; 2L8HC4_12, 0.2 M Sodium Acetate trihydrate, 0.1 M Tris hydrochloride pH 8.5 and 30% PEG 4,000; 3L6HC2_2, 0.1 M Sodium Acetate trihydrate pH 4.5 and 3.0 M Sodium chloride; 2L4HC2_23, 0.2 M Lithium chloride and 20% PEG 3,350; 2L4HC2_9, 0.1 M Sodium citrate tribasic dehydrate […]; 2L4HC2_11, 0.1 M Tris pH 8.5 and 2.0 M Ammonium sulfate; 5L6HC3_1, 0.1 M acid pH 3.5 and 3.0 M Sodium chloride; and 2L4HC2_24 was concentrated to 20 mg/ml and crystallized in 0.1 M Citric acid pH 3.5, 2.0 M Ammonium sulfate. […]\n(§2) The crystals of the designed proteins were placed in a reservoir solution containing 15 to 20% (v/v) glycerol, and then flash-cooled in liquid nitrogen. […] All the design structures were determined by the molecular-replacement method with the program PHASER within the Phenix suite using the design models as the initial search model. […] Root-mean-square deviation differences from ideal geometries for bond lengths, angles and dihedrals were calculated with Phenix. The overall stereochemical quality of all final models was assessed using the program MOLPROBITY."}, "[2]": {"target": "the molecule itself", "assay": "SAXS against the homotetramer design model", "method": "(§3) Samples were purified by gel filtration in 20 mM Tris pH 8.0 at room temperature, 150 mM NaCl and 2% glycerol; fractions preceding the void volume of the column were used as blanks for buffer subtraction. Scattering measurements were performed at the SIBYLS 12.3.1 beamline at the Advanced Light Source. The X-ray wavelength (λ) was 1 Å, and the sample-to-detector distance of the Mar 165 detector was 1.5 m, corresponding to a scattering vector q (q=4πsin θ/λ, where 2θ is the scattering angle) range of 0.01 to 0.3 Å−1. Data sets were collected using exposures of 0.5, 1, and 6 seconds at 12 keV. […] For each sample, data was collected for at least two different concentrations to test for concentration-dependent effects; “high” concentration samples ranged from 3-7 mg/ml and “low” concentration samples ranged from 1-2 mg/ml. […] FoXS was used to compare design models to experimental scattering profiles and calculate quality of fit (X) values. For the design models, extra residues introduced by the expression vector were added to the computational models using Rosetta™ Remodel so that the design sequence matched that of the experimental sample. To capture the conformational flexibility of these extra tag residues in solution, 100 independent models were generated per design. These 100 models were then clustered by Rosetta™, and to avoid bias, the cluster center of the largest cluster was selected as the single representative model used for fitting to experimental data."}, "[3]": {"target": "the molecule itself", "assay": "oligomeric state of the purified design, and SAXS; antiparallel homodimer", "method": "as §3"}, "[4]": {"target": "the molecule itself", "assay": "X-ray crystal structure; homotrimer", "description": "as §1, §2"}, "[5]": {"target": "the molecule itself", "assay": "X-ray crystal structure; homodimer", "description": "as §1, §2"}, "[6]": {"target": "the molecule itself", "assay": "SAXS against the parallel homodimer design model", "method": "(§4) Samples were purified by gel filtration in 20 mM Tris pH 8.0 at room temperature, 150 mM NaCl and 2% glycerol; fractions preceding the void volume of the column were used as blanks for buffer subtraction. Scattering measurements were performed at the SIBYLS 12.3.1 beamline at the Advanced Light Source. The X-ray wavelength (λ) was 1 Å, and the sample-to-detector distance of the Mar 165 detector was 1.5 m, corresponding to a scattering vector q (q=4πsin θ/λ, where 2θ is the scattering angle) range of 0.01 to 0.3 Å−1. Data sets were collected using exposures of 0.5, 1, and 6 seconds at 12 keV. […] For each sample, data was collected for at least two different concentrations to test for concentration-dependent effects; “high” concentration samples ranged from 3-7 mg/ml and “low” concentration samples ranged from 1-2 mg/ml. […] FoXS was used to compare design models to experimental scattering profiles and calculate quality of fit (X) values. For the design models, extra residues introduced by the expression vector were added to the computational models using Rosetta™ Remodel so that the design sequence matched that of the experimental sample. To capture the conformational flexibility of these extra tag residues in solution, 100 independent models were generated per design. […]"}, "[7]": {"target": "the molecule itself", "assay": "oligomeric state and CD of the synthetic peptide in PBS; self-association"}, "[8]": {"target": "the molecule itself", "assay": "X-ray crystal structure superimposed on the design model; homotrimer", "description": "as §1, §2"}, "[9]": {"target": "the molecule itself", "assay": "X-ray crystal structure (3.8 Å) and SAXS; homotetramer", "method": "The crystals of the designed proteins were placed in a reservoir solution containing 15 to 20% (v/v) glycerol, and then flash-cooled in liquid nitrogen. The X-ray data sets were collected at the Berkeley Center for Structural Biology beamlines 5.0.1, 8.2.1 and 8.2.2 of the Advanced Light Source at Lawrence Berkeley National Laboratory (LBNL). Data sets were indexed and scaled using HKL2000. All the design structures were determined by the molecular-replacement method with the program PHASER within the Phenix suite using the design models as the initial search model. The atomic positions obtained from molecular replacement and the resulting electron density maps were used to build the design structures and initiate crystallographic refinement and model rebuilding. Structure refinement was performed using the phenix.refine program. Manual rebuilding using COOT and the addition of water molecules allowed construction of the final models. Root-mean-square deviation differences from ideal geometries for bond lengths, angles and dihedrals were calculated with Phenix. The overall stereochemical quality of all final models was assessed using the program MOLPROBITY.\nSamples were purified by gel filtration in 20 mM Tris pH 8.0 at room temperature, 150 mM NaCl and 2% glycerol; fractions preceding the void volume of the column were used as blanks for buffer subtraction. […]"}, "[10]": {"target": "the molecule itself", "assay": "SAXS, design model fit to the scattering data with FoXS", "method": "as §4"}, "[11]": {"target": "the molecule itself", "assay": "characterisation of the purified design (method not given); self-association"}}, "data": [{"protein": "2L4HC2_23 (designed binder, Monomer subunit of a designed left-handed C2 homodimer; entries pair it with itself) GTRTEIIRELERSLREQEELAKRLKELLRELERLQREGSSDEDVRELLREIKELVEEIEKLAREQKYLVEELKRQD", "values": [{"measurement": "binding result", "setting": "[1]", "result": "binds"}]}, {"protein": "5L8HC4_6 (designed binder, Monomer subunit of a designed untwisted C4 homotetramer; entries pair it with itself) GSKDTEDSRKIWEDIRRLLEEARKNSEEIWKEITKNPDTSEIARLLSEQLLEIAEMLVRIAELLSRQTEQR", "values": [{"measurement": "binding result", "setting": "[2]", "result": "binds"}]}, {"protein": "2L6Hanti_3 (designed binder, Monomer subunit of a designed left-handed antiparallel homodimer; entries pair it with itself) SEKARIAVENLEAALRLNRAAAEMQKSAIKIMDDNRSDEKALRYLRLTTKVLRMSVELLRASLELAEKALREEGSDDSAEKVRKEAEEILKESTEILKEADKETKRADEEGS", "values": [{"measurement": "binding result", "setting": "[3]", "result": "binds"}]}, {"protein": "2L6Hanti_1 (designed binder, Monomer subunit (three helices) of a designed left-handed antiparallel homodimer; entries pair it with itself) SDYLRLATEHNKLAVEANRLAIELAKSAVELAETDPSKTALEHAELAARLLEMMVQFTKAAQELTREAIRKEGRNEESEKVLRKSKEAYKESEKALEDARRLLDELRKKGS", "values": [{"measurement": "binding result", "setting": "[3]", "result": "binds"}]}, {"protein": "2L6HC3_12 (designed binder, Monomer subunit of a designed left-handed C3 homotrimer; entries pair it with itself) GTKYELRRALEELEKALQELREMLRKLKESLEELKKNPSEDALVRNNELIVEVLRVIVEVLSIIARVLEINARSD", "values": [{"measurement": "binding result", "setting": "[4]", "result": "binds"}]}, {"protein": "2L6Hanti_5 (designed binder, Monomer subunit of a designed left-handed antiparallel homodimer; entries pair it with itself) TDVLRIAAENLKAAVELAKAALEMAKSAIEIAKTLTEDDEALKFARAAAEVLRMAAKLLKLSIELARKAAEEEGSDDEVRYILDEARKQADELREALKKVDEIMKELDKRGS", "values": [{"measurement": "binding result", "setting": "[3]", "result": "binds"}]}, {"protein": "5L6HC3_1 (designed binder, Monomer subunit of a designed untwisted C3 homotrimer; entries pair it with itself; also called untwisted trimer) SEELRAVADLQRLNIELARKLLEAVARLQELNIDLVRKTSELTDEKTIREEIRKVKEESKRIVEEAEEEIRRAKEESRYIADESRGS", "values": [{"measurement": "binding result", "setting": "[4]", "result": "binds"}]}, {"protein": "2L4HC2_24 (designed binder, Monomer subunit of a designed left-handed C2 homodimer; entries pair it with itself) GTDTDELLRLAKEQAELLKEIKKLVEEIARLVKEIQEDPSDELLKTLAELVRKLKELVEDMERSMKEQLYIIKKQKS", "values": [{"measurement": "binding result", "setting": "[5]", "result": "binds"}]}, {"protein": "2L4HC2_11 (designed binder, Monomer subunit of a designed left-handed C2 homodimer; entries pair it with itself) GSEDYKLREAQRELDKQRKDTEEIRKRLKEIQRLTDERTSTADELIKELREIIRRLQEQSEKLREIIEELEKIIRKR", "values": [{"measurement": "binding result", "setting": "[5]", "result": "binds"}]}, {"protein": "3L6HC2_4 (designed binder, Monomer subunit of a designed parallel right-handed six-helix C2 homodimer; entries pair it with itself) SALEKIAKLIIEAARLSAELARRAARASAEMARKAIEAVSEERGSESLLKIVADLIVESQEAVVRLIIESQQIAAKLAEDLIRAAKEAASDESKMEEVAKEVQERAERAARDIERKLKRVLEELDYKLKESRDGS", "values": [{"measurement": "binding result", "setting": "[6]", "result": "binds"}]}, {"protein": "Ac-TERENNYRNEENNRKIEEEIREIKKEIKKNKERD-NH2 (Synthetic inner-ring-only peptide; reported as unfolded and monomeric in isolation; also called inner ring peptide of 2L6HC3_13)", "note": "[2L6HC3_13_inner]", "values": [{"measurement": "binding result", "setting": "[7]", "result": "no binding"}]}, {"protein": "3L6HC2_7 (designed binder, Monomer subunit of a designed parallel right-handed six-helix C2 homodimer; entries pair it with itself) SILELAHESNRRALEMASRANREAMKAAREMIRAASEAARRAGSSNDKDSLRMIEEALRLALRMIEETNKKAVRMVLENNRKMVEAEKKKLSEEEIKRIAKETEDRMREIARRASEEARRLAEEIKREADYRSGS", "values": [{"measurement": "binding result", "setting": "[6]", "result": "binds"}]}, {"protein": "2L6HC3_6 (designed binder, Monomer subunit of a designed left-handed C3 homotrimer; entries pair it with itself; also called XXBB) GTKYKIKETLKRLEDSLRELRRILEELKEMLERLEKNPDKDVIVEVLKVIVKAIEASVENQRISAENQKALAESD", "values": [{"measurement": "binding result", "setting": "[8]", "result": "binds"}]}, {"protein": "2L8HC4_12 (designed binder, Monomer subunit of a designed left-handed C4 homotetramer; entries pair it with itself; also called lefthanded tetramer) GTAIEANSRMLKALIEIAKAIWKALWANSLLLEATSRGDTERMRQWAEEAREIYKEAKKIIDEADEIVKEAKERHD", "values": [{"measurement": "binding result", "setting": "[9]", "result": "binds"}]}, {"protein": "5L8HC4_1 (designed binder, Monomer subunit of a designed untwisted C4 homotetramer; entries pair it with itself) GSKVEELLRKSEEAAERAKRELERLLEESERIVAEAQALAEKYESQKVWVRILIELIRATNRMLAEIARILLEMIEVTNRMIAESTK", "values": [{"measurement": "binding result", "setting": "[2]", "result": "binds"}]}, {"protein": "2L6Hanti_2 (designed binder, Monomer subunit of a designed left-handed antiparallel homodimer; entries pair it with itself) SEELRKAAENNELAVRLAEAALRMARSALHLFEENPSDEMLKFLELAMEVAKMAAELLKASLKMLKKAAEERGSDESVKYLADKSRDIMRQITEELKKLEEEAKRAQKRGS", "values": [{"measurement": "binding result", "setting": "[3]", "result": "binds"}]}, {"protein": "5L4HC2_12 (designed binder, Monomer subunit of a designed untwisted C2 homodimer; entries pair it with itself) GTETKKLVEEVERALRELLKTSEDLVRKVEKALRELLELIRRGGTKDKIEEKIRRVLEEIKRELERQKRKIEDVLRQIKEELYRS", "values": [{"measurement": "binding result", "setting": "[10]", "result": "binds"}]}, {"protein": "2L6Hanti_4 (designed binder, Monomer subunit of a designed left-handed antiparallel homodimer; entries pair it with itself) SRRLELAARINKAAAENARSAIEIQELAARLADELSSSKKVIDFARATTEVLRMSVKLLKLSLEMLEEAARQDGRSEEVRYLAEESKKILEEARKALEDADRLTKRIEEEGS", "values": [{"measurement": "binding result", "setting": "[3]", "result": "binds"}]}, {"protein": "2L4HC2_9 (designed binder, Monomer subunit (helical hairpin) of a designed left-handed C2 homodimer; entries pair it with itself; Expressed in E. coli with a His tag (C-terminal, or N-terminal and thrombin-cleavable); Underlined residues are said to be optional, but the underlining is not visible) GTSDYIIEQIQRDQEEARKKVEEAEERLERVKEASKRGVSSDQLLDLIRELAEIIEELIRIIRRSNEAIKELIKNQS", "values": [{"measurement": "binding result", "setting": "[11]", "result": "binds"}]}, {"protein": "2L6HC3_13 (designed binder, Monomer subunit of a designed left-handed C3 homotrimer; entries pair it with itself; also called AAXX) GTKYELRRALEELEKALRELKKSLDELERSLEELEKNPSEDALVENNRLNVENNKIIVEVLRIIAEVLKINAKSD", "values": [{"measurement": "binding result", "setting": "[8]", "result": "binds"}]}, {"protein": "5L8HC4_2 (designed binder, Monomer subunit of a designed untwisted C4 homotetramer; entries pair it with itself) SEQLKEIARILIKLIESLTRFILEVARILIELIEETQRLIVASTDSDESELERIARESKKKAKKALDELKKIVDDQRREAKKAIEELEYDGS", "values": [{"measurement": "binding result", "setting": "[2]", "result": "binds"}]}]}
